Measured values reported in patent publication US9243032B2, “Compositions for treatment of neurodegenerative diseases” (Ramot at Tel-Aviv University Ltd., priority 2009, dated 2016).
Where “and” joins values, the source holds several entries; their conditions need not be identical. Equal entries are not always repeated. Blank lines part the entries; values can stand above or below the compound they belong to. Square brackets hold non-standard residues; d marks the D form. Ends that are not written are not given here. Peptide text beside a SMILES is read from it.

Assays:
[1] = target: T1, α-syn monomers (Homo sapiens, UniProt P37840); assay: Fluorescence anisotropy affinity study; type: binding; conditions: FIG. 5B, read-out: affinity constant (Kd) towards α-syn monomers
T1 construct: made in house; host or cells: E. coli BL21, pT7-7 vector
Method: Fluorescence Anisotropy Studies: β-syn 36 in which tyrosine was substituted with tryptophan (SEQ ID NO: 22—[…]) was dissolved to a concentration of 54 μM. The solution was immediately mixed with α-syn monomer stock solution to varying final concentrations. The peptide polarization measurements were carried out using an ISS K2 fluorometer. The solutions were excited at 280 nm and emission was monitored at 350 nm. For each single point, at least five measurements were collected and their average values were used for the calculation. All experiments were performed using ultra pure water.
To determine the affinity of the interaction between β-syn 36 and α-syn monomers, a peptide containing tryptophan instead of tyrosine at position 39 within β-syn was used, exploiting its intrinsic fluorescence in a fluorescence anisotropy assay. […] Increasing amount of α-syn monomers were titrated into a solution of β-syn 36 peptide and anisotropy was determined (FIG. 5B). The affinity constant was calculated as ˜1 μM.

[2] = In vitro peptide stability in mouse brain homogenate; type: in vitro ADME; conditions: fresh mouse brain homogenate, 2 hours, 37° C., HPLC, FIGS. 6A-C
Method: In Vitro Assay of Peptide Stability: Peptides were dissolved to form a 1 mM solution in 50 μM Tris buffer (PH=7.6). 120 μl of the peptide solution was diluted into a 10% freshly-taken mouse brain homogenate without the cerebellum (in 1×Tris buffer and 0.5% Triton X-100). A mixture containing 20% peptide solution and 80% mouse brain homogenate was incubated at 37° C. with delicate shaking for 2 hours. The enzyme reaction was stopped by the addition of 0.1 M HCL solution, followed by denaturation of the protein using CH3OH and incubation at 20° C. for 1 hour. The precipitated proteins were centrifuged at 29,000×g for 20 minutes at 4° C. and the supernatant containing the peptide was concentrated under vacuum and separated using a C18 HPLC column. The area of the peak (UV absorbance at 280 nm) corresponding to the intact peptide was compared with an equivalent sample incubated in 50 μM Tris buffer.
Later, the stability of peptide β-syn 36 and the modified retro-inverso peptide was compared using fresh mouse brain homogenate to model serum degradation for a period of 2 hours.

[3] = test system: flies expressing A53T α-syn in their nervous system; type: in vivo, Drosophila
Method: Fly Keeping: Flies were reared on standard corneal-molasses medium and were kept at 25° C. Male flies were crossed with virgin females collected no longer than 8 hours or 18 hours after eclosion at 25° C. or 18° C. respectively. Adult offspring (F1) from the crosses were collected up to 9 days after the beginning of their eclosion at 25° C. in order to avoid offspring from the next generation (F2).
Fly Crossing: Male flies carrying the driver elav-Ga14 on their X chromosome were crossed with females carrying the A53T α-syn transgene located on their X chromosome under the UAS promoter. […] Offspring of male flies carrying the driver elav-Ga14 crossed with WT OR females served as control.
Special Fly Feeding: β-syn retro-inverso peptide was added to standard corneal-molasses medium at a concentration of 0.75 mg/ml. The peptide was mixed thoroughly into the medium at 40° C. and the mixture was aliquot into rearing vials. The vials were kept at 4° C. until use. Crosses were performed either on regular Drosophila medium (control) or on medium supplemented with the peptide. Animals were fed on the appropriate medium from the beginning of the larval stage. After eclosion, offspring were transferred into a new vial that was pre-dripped with 0.75 mg/ml peptide solution every second day.
Locomotive (Climbing) Assay: Test tubes, each containing 10 flies, were tapped gently on the table and were let stand for 20 seconds. The percent of flies which climbed about one centimeter from the bottom of the test tube was then calculated over time. Each class had five independent test tube repeats.
In order to assess the effect of the peptide on α-syn in the living organism, a Drosophila model of PD was used. The transgenic flies over express the mutated […] α-syn in their nervous system, via the Gal4-UAS system. A common behavioral phenotype of these flies is defective locomotion; while normal flies tend to climb up along the tube, these flies remain at the bottom (Ueda et al., (1993) Proc Natl Acad Sci USA 90(23), 11282-11286). […] This cross was performed either on regular Drosophila medium or on medium supplemented with 0.75 mg/mL β-syn 36 retro-inverso peptide.

[4] = target: T2, α-syn (Homo sapiens, UniProt P37840); assay: ThT fluorescence assay of α-syn fibril formation; type: biochemical; conditions: for inhibition of fibril formation: as summarised in Example 4; for dose-dependent inhibition of α-syn aggregation: FIG. 3C
T2 construct: made in house; host or cells: E. coli BL21, pT7-7 vector
Method: ThT Florescence Assay: α-syn was dissolved to a concentration of 200 μM in 100 mM Tris buffer (pH 7.4). In order to obtain the monomeric fraction, the protein was filtered through a 100 kDa centricon. Since α-syn is not a globular protein but a natively unfolded one, only monomers and some dimers pass through the filter. […] The samples were incubated at 37° C. with agitation of 850 RPM as described by Tsigelny et al. (Tsigelny et al., 2007 Febs J 274(7), 1862-1877) and the fibrillogenesis rate was followed by thioflavin T (ThT) fluorescence assay (excitation at 450 nm, 2.5 nm slit, and emission at 480 nm, 5 nm slit), after three days of incubation. ThT was added to a 500-fold diluted sample and measured using a Jobin Yvon Horiba Fluoromax 3 fluorimeter.
In order to examine the inhibitory effect of the peptides on α-syn fibril formation, the Thioflavin-T (ThT) binding assay was used. This method provides quantitative information on amyloid fibril growth. α-syn was incubated for several days at 37° C. with vigorous shaking to allow the formation of amyloid fibrils with or without the different β-syn-derived peptides. The fibrillization process was monitored for three days.

[5] = target: T2, α-syn; assay: Soluble oligomer formation, Western blot; type: biochemical; conditions: soluble fraction, ~20-24 hours incubation, FIG. 4B
Method: Determination of Soluble Oligomer Formation: Monomeric α-syn was dissolved to a concentration of 200 μM in 100 mM Tris buffer (pH 7.4) and was immediately mixed with or without different β-syn derived peptides at a 1:1 ration to a final concentration of 100 μM, as was described above for the aggregation assay. […], 10 μl of the protein were centrifuged at 13000 RPM for 10 minutes, the supernatant was collected and electrophoresed in acrylamide gel using native loading buffer without β-mercaptoethanol and boiling. The gel was washed 3 times in ddH2O and samples were then transferred to the nitrocellulose membrane using semi-dry blot technique applying 323 mA current for 30 minutes. The membrane was blocked for 1 hour using 5% milk diluted in TBS (0.3% Tween) while shaking. Anti α-syn diluted 1:1000 (Santa Cruz Biotechnology) in 5% milk in TBS (0.3% tween) was added to the membrane for 2 hours incubation followed by several washes with TBS (0.3% Tween). Rabbit anti mouse IgG (Fc specific)-HRP conjugated antibody diluted 1:5000 in 5% milk diluted in TBS (0.3% Tween) was administrated for 1 hour at RT while shaking. Blots were developed after thorough TBS (0.3% Tween) washes using Enhanced Chemiluminescence System (ECL) according to the manufacturer's instructions.
To examine the ability of the peptides to inhibit the early stage of aggregation, soluble fractions of α-syn were collected after incubation with the β-syn peptides. The reaction mixtures were separated using SDS-PAGE followed by western blot analysis using a specific anti α-syn antibody (Santa-Cruz) (FIG. 4A).

[6] = target: T2, α-syn; assay: Transmission electron microscopy of α-syn fibrils; type: biochemical; conditions: samples from the ThT experiment; FIGS. 3D-K
Method: Transmission Electron Microscopy: Samples (10 μL) from the α-syn ThT fluorescence assay (with and without inhibitors) were placed on 400-mesh copper grids covered by carbon-stabilized Formvar film (SPI Supplies, West Chester, Pa.). After 1.5 minutes, excess fluid was removed, and the grids were negatively stained with 10 μl of 2% uranyl acetate solution for 2 minutes. Finally, excess fluid was removed and the samples were viewed in a JEOL 1200EX electron microscope operating at 80 kV.
Transmission electron microscopy (TEM) analysis was performed on samples of α-syn with and without the β-syn inhibitors.

Compound: CC(C)C[C@H](NC(=O)[C@@H](NC(=O)CN)C(C)C)C(=O)N[C@@H](Cc1c[nH]c2ccccc12)C(=O)N[C@H](C(=O)NCC(=O)N[C@@H](CO)C(=O)N[C@@H](CCCCN)C(=O)N[C@H](C(=O)N[C@@H](CCCNC(=N)N)C(=O)O)[C@@H](C)O)C(C)C (H-GVLWVGSKTR-OH; N-terminus and C-terminus assumed)
Kd [1]: ~1000 nM and 1000 nM

Compound: CC(C)C[C@@H](NC(=O)[C@@H](Cc1ccc(O)cc1)NC(=O)[C@H](NC(=O)CNC(=O)[C@@H](CO)NC(=O)[C@@H](CCCCN)NC(=O)[C@H](NC(=O)[C@H](N)CCCNC(=N)N)[C@H](C)O)C(C)C)C(=O)N[C@@H](C(=O)NCC(=O)O)C(C)C [β-syn 36 retro-inverso peptide] (H-[dR][dT][dK][dS]G[dV][dY][dL][dV]G-OH)
stability in brain homogenate [2]: elevation in stability
stability in brain homogenate ([2]; listed as retro-inverso analogue): stable in human serum
increase in climbing compared to untreated group ([3]; A53T α-syn flies, day 27): 30%
percent of flies climbing ([3]; A53T α-syn flies, medium with 0.75 mg/mL peptide, day 27): 66%
effect on locomotion of control flies ([3]; control flies on medium with peptide): no significant effect
phenotypic recovery of A53T α-syn flies ([3]; medium with 0.75 mg/mL peptide): great phenotypic recovery

Compound: VLYVGSKTRE [β-syn 37, decamer, aa 37-46 of β-syn]
inhibition of fibril formation [4]: inhibited the fibrils
inhibition of oligomer formation [5]: not the oligomers formation

Continued, in another order:

inhibition of fibril formation [4]: not fibril formation
inhibition of oligomer formation [5]: inhibited oligomers
Compound: AATGLVKREE [β-syn 78, decamer, aa 78-87 of β-syn]

dose-dependent inhibition of α-syn aggregation ([4]; ThT, peptide excess 5:1 (molar ratio)): less efficient
dose-dependent inhibition of α-syn aggregation ([4]; ThT, peptide excess 10:1 (molar ratio)): still efficient
inhibition of α-syn aggregation, kinetic analysis ([4]; ThT, β-syn 36 compared with β-syn 39, FIG. 3B): better inhibition
Compound: GVLYVGSKTR [β-syn 36, decamer, aa 36-45 of β-syn, natural L-amino acids]
inhibition of fibril formation [4]: inhibited almost completely the formation of both aggregation types
fibril formation by TEM [6]: almost completely inhibited fibril formation
inhibition of oligomer formation [5]: inhibited almost completely the formation of both aggregation types

inhibition of fibril formation [4]: inhibited the fibrils
inhibition of oligomer formation [5]: not the oligomers formation
Compound: SMAKEGV [β-syn 6short, seven amino acids peptide, aa 9-15 of β-syn, positive control selected by Windisch et al, reference compound]

inhibition effect on α-syn aggregation ([4]; ThT, FIG. 7F): no inhibition effect
Compound: YVGSKTR ([dY][dV]G[dS][dK][dT][dR]) [β-syn 36D short, β-syn 36D lacking amino acids G, V, L]
